These results are taken from US20180298070A1, “PEPTIDE COMPOUND” (Takeda Pharmaceutical Company Limited, published 2018).

Starred links: 1 amine or outer side, 2 acyl side, 3 side chain; linkers in the order of their positions; H or OH if unused. Non-standard residues stand in square brackets, D forms with d. Groups on a side chain read outwards from the residue. Primed or numbered codes have the meaning given here. No end group written: not given here. *: point of attachment. C20 diacid = O=C(O)CCCCCCCCCCCCCCCCCCC(=O)*; γGlu = O=C(O)[C@H](CCC(=O)[*:2])N[*:1]; NMeY = CN[C@@H](Cc1ccc(O)cc1)C(=O)O; αMeF = C[C@](N)(Cc1ccccc1)C(=O)O; Myristoyl = CCCCCCCCCCCCCC(=O)*; Undecanoyl = CCCCCCCCCCC(=O)*; Lauroyl = CCCCCCCCCCCC(=O)*; Decanoyl = CCCCCCCCCC(=O)*; dIva = CC[C@@](C)(N)C(=O)O; Iva = CC[C@](C)(N)C(=O)O; PEG2′ = not defined here; PEG3′ = not defined here; PEG4′ = not defined here; Hexanoyl = CCCCCC(=O)*; Aib = CC(C)(N)C(=O)O

The target of experiment [1] is T1, human GLP-1R (human), P43220.
T1 chain: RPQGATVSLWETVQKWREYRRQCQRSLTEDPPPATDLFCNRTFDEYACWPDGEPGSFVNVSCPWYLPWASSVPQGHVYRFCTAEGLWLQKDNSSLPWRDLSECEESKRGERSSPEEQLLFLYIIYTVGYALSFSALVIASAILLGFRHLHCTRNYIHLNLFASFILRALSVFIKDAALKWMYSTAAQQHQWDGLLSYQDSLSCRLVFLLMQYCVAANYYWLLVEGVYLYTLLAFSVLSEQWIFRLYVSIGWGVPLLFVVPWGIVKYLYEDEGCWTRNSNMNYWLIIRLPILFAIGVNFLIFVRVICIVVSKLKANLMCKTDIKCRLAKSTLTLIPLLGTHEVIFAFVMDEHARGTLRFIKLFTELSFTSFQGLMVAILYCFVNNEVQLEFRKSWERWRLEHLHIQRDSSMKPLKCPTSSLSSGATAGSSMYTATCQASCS

Experiment [2] addresses T2, human GIPR (human), P48546.
T2 chain: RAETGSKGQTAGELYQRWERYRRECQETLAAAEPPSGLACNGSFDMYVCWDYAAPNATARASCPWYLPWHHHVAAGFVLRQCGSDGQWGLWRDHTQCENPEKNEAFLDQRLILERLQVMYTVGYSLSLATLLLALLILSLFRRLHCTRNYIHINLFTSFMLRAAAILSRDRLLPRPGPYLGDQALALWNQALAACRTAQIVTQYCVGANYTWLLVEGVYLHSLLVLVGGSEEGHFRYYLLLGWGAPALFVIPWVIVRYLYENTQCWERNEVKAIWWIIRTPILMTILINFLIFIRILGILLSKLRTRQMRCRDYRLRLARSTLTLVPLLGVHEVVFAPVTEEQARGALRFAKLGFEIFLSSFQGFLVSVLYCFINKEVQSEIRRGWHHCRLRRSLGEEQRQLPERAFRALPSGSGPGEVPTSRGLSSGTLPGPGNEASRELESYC

Experiment [3] has as its target T2, human GIPR (human), P48546. Briefly: [125I]GIP displacement, hGIPR VLP.

As for Y[Aib]EGTVVSLYSI[Aib]LDKQAQ[Aib]EFVKWLLKGK([PEG(2)-Pal]) (ends and bridges not checked) [Compound 162], the Agonist activity (EC50, M) in experiment [1] is greater than 1e-06 M; in experiment [2] it was 2.7e-10 M.

Take Y[Aib]EGTFISDYSK([PEG(2)-Lauroyl])ALDR[Aib]AQQDFVNWLLAQRPSSGAPPPSR (ends and bridges not checked) [Compound 198]: the values for the Agonist activity (EC50, M) in experiment [1] and in experiment [2] were 2.8e-08 M and 4.5e-12 M, respectively.

As for Y[Aib]EGTFISDYSK([PEG2′-Undecanoyl])ALDRIAQQDFVNWLLAQRPSSGAPPPSR (ends and bridges not checked) [Compound 183], the results for the Agonist activity (EC50, M) in experiment [1] and in experiment [2] were 3.3e-08 M and 3.4e-12 M, respectively.

Regarding Y[Aib]EGTFISDYSK([PEG(2)-Lauroyl])ALDRIHQ[Aib]NFVNWLLAQRPSSGAPPPS (ends and bridges not checked) [Compound 209], the Agonist activity (EC50, M) is greater than 1e-06 M in experiment [1] and 4.3e-12 M in experiment [2].

On to Y[Aib]EGTFISDYSK([PEG(2)-Lauroyl])ALDRIHQQDFVNWLLAQRPSSGAPPPS (ends and bridges not checked) [Compound 175], for which the Agonist activity (EC50, M) is greater than 1e-06 M in experiment [1] and 3.5e-12 M in experiment [2].

For the molecule Y[Aib]EGTFISDYSK([PEG2′-Lauroyl])ALDRIAQQDFVNWLLAQRPSSGAPPPSR (ends and bridges not checked) [Compound 184], the Agonist activity (EC50, M) in experiment [1] turned out to be 3e-08 M; in experiment [2], 3.6e-12 M.

Turning to Y[Aib]EGTFISDYSK([PEG2′-Lauroyl])ALDR[Aib]AQ[Aib]NFVNW[Iva]LAQRPSSGAPPPS (not fully specified (C-terminus); ends and bridges not checked) [Compound 211], the Agonist activity (EC50, M) in experiment [1] is 2.6e-08 M; in experiment [2] it was 3.4e-12 M.

As to Y[Aib]EGTFISDYSK([PEG2′-Myristoyl])ALDRIAQQDFVNWLLAQRPSSGAPPPSR (ends and bridges not checked) [Compound 186], the Agonist activity (EC50, M) in experiment [1] was 1.3e-08 M; in experiment [2] it was 6.4e-12 M.

As to Y[Aib]EGTFISDYSK([PEG2′-Decanoyl])ALDRIAQQDFVNWLLAQRPSSGAPPPSR (ends and bridges not checked) [Compound 182], the results for the Agonist activity (EC50, M) in experiment [1] and in experiment [2] were 4.8e-08 M and 3.3e-12 M, respectively.

Regarding Y[Aib]EGTFISDYSK([PEG(2)-Lauroyl])ALDRIAQQDFVNWLLAQRPSSGAPPPS (ends and bridges not checked) [Compound 192], the Agonist activity (EC50, M) in experiment [1] was 1.5e-08 M; in experiment [2], 6.5e-12 M.

Regarding Y[Aib]EGTFISDYSK([PEG(2)-Hexanoyl])ALDRIHQQDFVNWLLAQRPSSGAPPPS (ends and bridges not checked) [Compound 174], the Agonist activity (EC50, M) in experiment [1] was greater than 1e-06 M; in experiment [2], 4.2e-12 M.

Take Y[Aib]EGTFISDYSK([PEG(2)-Lauroyl])ALDRIAQQD[αMeF]VNWLLAQRPSSGAPPPS (ends and bridges not checked) [Compound 202]: the values for the Agonist activity (EC50, M) in experiment [1] and in experiment [2] were 1.8e-07 M and 4.6e-12 M, respectively.

As for Y[Aib]EGTFISDYSIALDRK([PEG(2)-Pal])HQQDFVNWLLAQRPSSGAPPPS (not fully specified (C-terminus); ends and bridges not checked) [Compound 233], the Agonist activity (EC50, M) in experiment [1] is greater than 1e-06 M; in experiment [2], 3.8e-12 M.

Y[Aib]EGTFISDYSK([PEG(2)-Lauroyl])ALDR[Aib]HQQSFVNW[Iva]LAQRPSSGAPPPS (not fully specified (C-terminus); ends and bridges not checked) [Compound 224]: the Agonist activity (EC50, M) in experiment [1] was greater than 1e-06 M; in experiment [2] it was 4.2e-12 M.

As for Y[Aib]EGTFISDYSK([PEG2′-Lauroyl])ALDR[Aib]AQQD[αMeF]VNWLLAQRPSSGAPPPS (not fully specified (C-terminus); ends and bridges not checked) [Compound 213], the Agonist activity (EC50, M) in experiment [1] was determined as 5.4e-08 M; in experiment [2], 3.1e-12 M.

Turning to Y[Aib]EGTFISDYSK([PEG(4)-Pal])ALDRIAQQDFVNWLLAQRPSSGAPPPSR (ends and bridges not checked) [Compound 190], the Agonist activity (EC50, M) in experiment [1] is greater than 1e-06 M; in experiment [2], 2.1e-11 M.

Usually IC50 stands for the point on the concentration scale where inhibition reaches its midpoint. Read a low IC50 as higher potency. As for [NMeY][Aib]EGTFISDYSIALDR[Aib]AQ[Aib]NFVNW[Iva]LAQRPSSGAPPPSR (ends and bridges not checked) [Compound 84], the Agonist activity (EC50, M) in experiment [2] is 1.2e-12 M. Further, the IC50 in experiment [3] worked out at 1.2 nM.

For Y[Aib]EGTFISDYSK([PEG(2)-Lauroyl])[dIva]LDRIAQQDFVNWLLAQRPSSGAPPPS (ends and bridges not checked) [Compound 206], the Agonist activity (EC50, M) is greater than 1e-06 M in experiment [1] and 2.1e-11 M in experiment [2].

Consider Y[Aib]EGTFISDYSK([PEG(2)-Pal])ALDRIHQQDFVNWLLAQRPSSGAPPPS (ends and bridges not checked) [Compound 172], for which the figures for the Agonist activity (EC50, M) in experiment [1] and in experiment [2] were greater than 1e-06 M and 2e-12 M, respectively.

With Y[Aib]EGTFISDYSK([PEG2′-Lauroyl])ALDRIHQ[Aib]N[αMeF]VNW[Iva]LAQRPSSGAPPPS (not fully specified (C-terminus); ends and bridges not checked) [Compound 216], the Agonist activity (EC50, M) in experiment [1] came out at 1.5e-07 M; in experiment [2], 4.8e-12 M.

As for Y[Aib]EGTFISDYSK([PEG4′-Lauroyl])ALDRIAQQDFVNWLLAQRPSSGAPPPSR (ends and bridges not checked) [Compound 189], the values for the Agonist activity (EC50, M) in experiment [1] and in experiment [2] were 2.7e-08 M and 6.8e-12 M, respectively.

Turning to Y[Aib]EGTFISDYSK([PEG3′-PEG3′-γGlu-C20 diacid])ALDR[Aib]HQ[Aib]NFVNW[Iva]LAQRPSSGAPPPS (not fully specified (C-terminus); ends and bridges not checked) [Compound 242], the Agonist activity (EC50, M) in experiment [1] is greater than 1e-06 M; in experiment [2] it was 6.7e-11 M.

With [NMeY][Aib]EGTFISDYSI[dIva]LDRIAQ[Aib]N[αMeF]VNWLLAQRPSSGAPPPSR (ends and bridges not checked) [Compound 99], the Agonist activity (EC50, M) in experiment [1] was greater than 1e-06 M; in experiment [2], 2.9e-12 M. Further, in experiment [3], the IC50 was 2.1 nM.

On to Y[Aib]EGTFISDYSIALDRK([PEG(2)-dodec])HQ[Aib]NFVNW[Iva]LAQRPSSGAPPPS (not fully specified (C-terminus); ends and bridges not checked) [Compound 239], for which the Agonist activity (EC50, M) in experiment [1] worked out at 5e-08 M; in experiment [2], 2.5e-12 M.

With Y[Aib]EGTFISDYSK([PEG(2)-Lauroyl])ALDRIHQQD[αMeF]VNWLLAQRPSSGAPPPS (ends and bridges not checked) [Compound 208], the Agonist activity (EC50, M) in experiment [1] is greater than 1e-06 M; in experiment [2], 6.1e-12 M.

With Y[Aib]EGTVVSLYSI[Aib]LDKQAQ[Aib]EFVKWLLAQKK(Pal) (ends and bridges not checked) [Compound 161], the Agonist activity (EC50, M) in experiment [1] was greater than 1e-06 M. Also, the IC50 in experiment [3] stood at 24 nM.
